Experiment [1] addresses antibodies of human serum sample 16CDV61275. Put plainly: DAGS blocking; signal antigen m3 S-ZIKA-NS1-ß-ladder.
Experiment [2] has as its target antibodies of human serum sample 16CDV61197. The description is as above.
The target of experiment [3] is antibodies of human serum sample 16CDV61278. The experiment is described as above.
For experiment [4], the target named is antibodies of human serum sample 16CDV61275. Put plainly: DAGS blocking; signal antigen m1 SS-ZIKA-NS1-wing.
Experiment [5] deals with antibodies of human serum sample 16CDV61197. The experiment can be described thus: DAGS blocking; signal antigen m1 SS-ZIKA-NS1-wing.
Experiment [6] concerns the target antibodies of human serum sample 16CDV61278. The experiment can be described thus: DAGS blocking; signal antigen m1 SS-ZIKA-NS1-wing.

B1: Dengue virus type 4 NS1 full length aa 1-352 (protein)
chain: DTGCAVSWSGKELKCGSGIFVIDNVHTWTEQYKFQPESPARLASAILNAHEDGVCGIRSTTRLENIMWKQITNELNYVLWEGGHDLTVVAGDVKGVLSKGKRALAPPVNDLKYSWKTWGKAKIFTPEAKNSTFLIDGPDTSECPNERRAWNFLEVEDYGFGMFTTNIWMKFREGSSEVCDHRLMSAAIKDQKAVHADMGYWIESSKNQTWQIEKASLIEVKTCLWPKTHTLWSNGVLESQMLIPKAYAGPFSQHNYRQGYATQTVGPWHLGKLEIDFGECPGTTVTIQEDCDHRGPSLRTTTASGKLVTQWCCRSCTMPPLRFLGEDGCWYGMEIRPLSEKEENMVKSQVSA
B1: the Blocking [%] in experiment [1] turned out to be 25.1%; in experiment [2] it was 31.6%; in experiment [3], 2.6%; in experiment [4] it was 2.48%; in experiment [5] it was 0.891%; in experiment [6], 4.5%. The Blocking [%] normalized to Zika in experiment [1] stood at 27.3%; in experiment [2], 50.3%; in experiment [3] it was 3.7%; in experiment [4], 3.3%; in experiment [5], 1.2%; in experiment [6] it was 4.9%. Also, the counts in experiment [1] came to 2730 counts; in experiment [2] it was 2320 counts; in experiment [3], 2830 counts; in experiment [4] it was 3040 counts; in experiment [5] it was 2900 counts; in experiment [6] it was 2880 counts.

For the origin of these results see patent publication US20220220158A1.
